The text below walks through data of paper PMC7199859 (The Journal of Cell Biology, 2020).

The target of assay [1] is GAS2L1 S352A (Bio-GFP-tagged) (human) (UniProt Q99501). Briefly: pull-down.
In assay [2] the target is GAS2L1 S352D (Bio-GFP-tagged) (human) (UniProt Q99501). Briefly: pull-down.
Assay [3] deals with taxol-stabilized microtubules from porcine brain α/β-tubulin (porcine) (UniProt P02550). Briefly: co-sedimentation.
Assay [4] addresses T1, His6-CH (recombinant GAS2L1 CH domain, His6 tagged) (human, UniProt Q99501 1-196).
T1 sequence (looked up): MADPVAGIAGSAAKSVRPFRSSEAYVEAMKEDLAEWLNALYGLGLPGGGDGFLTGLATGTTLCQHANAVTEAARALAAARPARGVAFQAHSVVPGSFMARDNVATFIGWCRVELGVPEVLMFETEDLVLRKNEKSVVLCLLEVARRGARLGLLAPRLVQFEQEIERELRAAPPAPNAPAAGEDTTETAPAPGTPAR
Briefly: pull-down.

“actin (endogenous, HEK293T; detected with anti-β-actin) (from UniProt P60709 1-375) (natural protein)”: the values for the actin-binding activity relative to WT GAS2L1 in assay [1] and in assay [2] were 62 % lower and 46 % higher, respectively.

B1: His6-FLAG-CH-GAR (recombinant GAS2L1 1-300) (domain or fragment)
chain: MADPVAGIAGSAAKSVRPFRSSEAYVEAMKEDLAEWLNALYGLGLPGGGDGFLTGLATGTTLCQHANAVTEAARALAAARPARGVAFQAHSVVPGSFMARDNVATFIGWCRVELGVPEVLMFETEDLVLRKNEKSVVLCLLEVARRGARLGLLAPRLVQFEQEIERELRAAPPAPNAPAAGEDTTETAPAPGTPARGPRMTPSDLRNLDELVREILGRCTCPDQFPMIKVSEGKYRVGDSSLLIFVRVLRSHVMVRVGGGWDTLEHYLDKHDPCRCSSTAHRPPQPRVCTFSPQRVSPTT
Molecule B1 came in with a microtubule-binding activity relative to the GAR protein in assay [3] of 47 % lower.

B2: His6-FLAG-GAR (recombinant GAS2L1 GAR protein, 197-300) (domain or fragment, human, UniProt Q99501 197-300, looked up)
chain: GPRMTPSDLRNLDELVREILGRCTCPDQFPMIKVSEGKYRVGDSSLLIFVRVLRSHVMVRVGGGWDTLEHYLDKHDPCRCSSTAHRPPQPRVCTFSPQRVSPTT
For B2, the binding result in assay [4] was “binds”.
